This is an account of results in patent US5405946A, “Recombinant protein S variants deficient in C4BP binding activity, compositions and therapeutic methods” (The Scripps Research Institute, priority 1992, dated 1995).

Residue numbers refer to the chain shown, from its start. Names may count otherwise.

The target of assay [1] is activated protein C (APC) (Homo sapiens, UniProt P04070). The assay can be described thus: Activated partial thromboplastin time clotting assay, APC cofactor activity in PS- and C4BP-depleted plasma. Format: biochemical. The procedure:
(§1) An activated partial thromboplastin time clotting assay, using PS- and C4BP-depleted plasma, cephalin-kaolin reagent (Boehringer Mannhein, Indianapolis, Ind.), activated protein C (APC) and increasing amounts of recombinant PS variants was performed as described by Chang et al., Thromb. Haemost., 67:526-532 (1992). Briefly, to 50 ul PS and C4BP-depleted plasma (prepared as described by Koedam et al., J. Clin. Invest., 82:1236-1243 (1988)) was added 50 ul cephalin-kaolin reagent, 25 ul APC (Koedam et al., ibid) at 5 ug/ml and 15 to 45 ul recombinant PS variants (0-4 ug/ml) diluted in Michaelis buffer (28.5 mM sodium acetate, 28.5 mM sodium barbital and 116 mM NaCl, pH 7.35) and maintained for 3 minutes at 37C. Clotting was initiated by addition of 50 ul of 25 mM CaCl2 and the clotting time was measured in an Amelung-Coagulometer KC10.
(§2) The ability of the variants to serve as a cofactor for APC was tested in a clotting assay. The clotting assay was performed as described in Example 2D. To examine the effects of thrombin on recombinant PS variants APC cofactor activity, one ml of purified recombinant PS variants listed above and prepared in Example 1D (4-40 ug/ml) was maintained with 1/20 vol (50 ul) of thrombin-Sepharose for 1 hour at 37C. in 50 mM Tris-HCl pH 7.5 containing […]. Thrombin-Sepharose was removed by centrifugation. Supernatants containing the thrombin-treated PS were stored at -20C. until used.
(§3) The PS-dependent prolongation of the clotting time was measured in an activated partial thromboplastin time system using PS and C4BP depleted plasma, APC and cephalin-kaolin reagent as described in Example 2D. Increasing amounts of recombinant PS or the triple variant treated without or with thrombin were added. Clotting was initiated by the addition of CaCl2 and the clotting time was measured. The results are presented as the means of duplicate values.

In the next assay the target is T1, thrombin (Homo sapiens, UniProt P00734).
T1 construct: maintained with 1/20 vol (50 ul) of thrombin-Sepharose for 1 hour at 37C
The assay can be described thus: APC cofactor clotting assay after thrombin-Sepharose treatment of PS variants. Format: biochemical. The conditions noted are these: for Clotting Time After Treatment: after thrombin treatment, without protein S 72 ± 2 seconds. The procedure:
as §1, §2, §3

In assay [2] the target is T2, human C4b-binding protein (C4BP) (Homo sapiens, UniProt P20851).
T2 sequence (P20851 18-252): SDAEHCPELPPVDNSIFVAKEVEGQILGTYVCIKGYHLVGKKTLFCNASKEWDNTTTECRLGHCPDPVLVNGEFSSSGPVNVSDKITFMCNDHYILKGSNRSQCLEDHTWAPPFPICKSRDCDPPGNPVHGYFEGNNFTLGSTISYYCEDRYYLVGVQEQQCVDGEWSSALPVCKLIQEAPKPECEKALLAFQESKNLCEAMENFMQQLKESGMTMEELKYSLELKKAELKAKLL
T2 sequence (P04003 49-597 partner): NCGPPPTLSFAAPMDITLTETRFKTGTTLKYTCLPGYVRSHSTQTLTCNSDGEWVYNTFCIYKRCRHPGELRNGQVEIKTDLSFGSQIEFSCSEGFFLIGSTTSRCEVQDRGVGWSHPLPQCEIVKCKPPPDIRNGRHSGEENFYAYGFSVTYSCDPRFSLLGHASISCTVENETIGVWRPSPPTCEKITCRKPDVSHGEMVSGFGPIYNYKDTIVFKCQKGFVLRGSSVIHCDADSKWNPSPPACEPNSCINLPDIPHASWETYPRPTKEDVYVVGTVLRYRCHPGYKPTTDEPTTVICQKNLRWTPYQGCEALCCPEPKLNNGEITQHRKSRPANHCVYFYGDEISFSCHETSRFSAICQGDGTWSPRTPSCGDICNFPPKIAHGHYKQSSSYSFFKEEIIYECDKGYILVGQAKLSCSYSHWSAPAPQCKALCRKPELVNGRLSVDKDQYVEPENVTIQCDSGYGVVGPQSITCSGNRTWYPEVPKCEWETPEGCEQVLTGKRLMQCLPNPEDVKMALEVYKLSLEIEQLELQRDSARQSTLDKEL
The assay can be described thus: ELISA of complex formation between recombinant PS variant proteins and C4BP. The conditions noted are these: first disulfide loop variants, 0-150 ng/ml, C4BP 1 ug/ml, 18 hours room temperature, calcium. The method, then: The complex formation between the recombinant PS variant proteins and C4BP was measured with a sensitive ELISA using C4BP and a peroxidase conjugated anti-PS antibody as described by Chang et al., Thromb. Haemost., 67:526-532 (1992). Briefly, IgG at a concentration of 10 ug/ml from monoclonal antibody 8C11, which is directed against the alpha chain of C4BP (Hessing et al., J. Immunol., 144:204-208 (1990)), was coated in 50 mM NaHCO3 at pH 9.6 overnight at 4C. onto polyvinyl microtiter plates (Costar, Cambridge, Mass.). After washing to remove the unbound IgGs, the wells were blocked with 1% (w/v) BSA in 50 mM Tris-HCl at pH 7.5 containing 150 mM NaCl and 5 mM CaCl2 for 1 hour at room temperature. C4BP, prepared as described by Hessing et al., supra, was allowed to bind for 2 hours with a final concentration of 1 ug/ml. Increasing amounts of recombinant PS proteins (E424K, Q427E, K429E, […] and K432E) and wild-type recombinant PS prepared in Example 1 were then added in concentrations ranging from 0-150 ng/ml and maintained for 18 hours at room temperature. Bound proteins were allowed to bind to rabbit anti-human PS IgG conjugated to peroxidase (Dakopatts, Glostrup, Denmark) at a concentration of 0.3 ug/ml for 2 hours at room temperature. After washing the wells to remove the unbound proteins, 100 ul of 0.1M sodium phosphate/0.2M sodium citrate at pH 5.0 containing 0.04% 1,2-phenylenediamine dihydrochloride and 0.015% hydrogen peroxide was added. The hydrolysis of phenylenediamine was stopped by adding 50 ul 2N sulfuric acid. The absorbance was measured at 490 nm using a Vmax plate reader (Molecular Devices Corp., Menlo Park, Calif.). The data represented the mean of duplicate determinations.
The binding of the of the thrombin domain recombinant PS variants to C4BP was determined. The complex formation between the recombinant proteins and C4BP was measured with a sensitive ELISA using anti-C4BP monoclonal antibody 8C11 lgG, purified C4BP and peroxidase conjugated anti-PS antibody as described in Example 2A.
Anti-C4BP monoclonal antibody 8C11 IgG was coated onto microtiter wells to catch C4BP (1 ug/ml). Increasing amounts (0-100 ng/ml) of recombinant PS or variants (R49L, R60L, R70I, R49L/R60L, R60L/R70I, R49L/R70I and R49L/R60L/R70I) were added. Binding to C4BP was for 18 hours at room temperature. Bound PS variants were detected with anti-PS IgG conjugated to peroxidase (0.3 ug/ml). The results are the mean of duplicate values in two different experiments.

The mark [3] stands for this setting: concentration 2.38 ug/ml, without protein S 72 ± 2 seconds.
Setting [4] is: final conc. 0.6 ug/ml, basal clotting 80.
The mark [5] stands for this setting: concentration 1.12 ug/ml, without protein S 72 ± 2 seconds.
The mark [6] stands for this setting: concentration 0.60 ug/ml, without protein S 72 ± 2 seconds.

Chain of activated protein C (APC) (P04070 212-461 limits assumed): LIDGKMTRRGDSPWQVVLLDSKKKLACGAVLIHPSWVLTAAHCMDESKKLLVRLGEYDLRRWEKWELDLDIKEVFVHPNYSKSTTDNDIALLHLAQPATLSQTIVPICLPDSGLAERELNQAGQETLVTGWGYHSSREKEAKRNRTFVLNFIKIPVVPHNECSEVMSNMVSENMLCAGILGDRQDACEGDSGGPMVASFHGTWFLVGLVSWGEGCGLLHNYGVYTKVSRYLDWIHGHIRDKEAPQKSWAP
Chain of activated protein C (APC) (P04070 43-197 limits assumed): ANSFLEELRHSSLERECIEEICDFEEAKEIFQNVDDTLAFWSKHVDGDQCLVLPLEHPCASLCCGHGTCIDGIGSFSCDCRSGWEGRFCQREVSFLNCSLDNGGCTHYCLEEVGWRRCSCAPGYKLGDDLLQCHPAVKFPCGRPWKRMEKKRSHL

With “rPS wild-type: recombinant wild-type full length human protein S expressed in C127I cells [reference compound]”, the “Clotting Time” value in assay [1] (setting [3]) was 91 s; in assay [1] (final conc. 2.4 ug/ml, basal clotting 80) it was 116 s. Further, the “Clotting Time After Treatment” value with thrombin (concentration 2.38 ug/ml) was 70 s. The “APC cofactor activity after treatment with thrombin” value in the assay with thrombin (thrombin-Sepharose 1 hour at 37C) is reported as “significantly decreased”.

B1: E424K variant: recombinant human protein S with Glu-424 replaced by Lys (protein)
chain: ANSLLEETKQGNLERECIEELCNKEEAREVFENDPETDYFYPKYLVCLRSFQTGLFTAARQSTNAYPDLRSCVNAIPDQCSPLPCNEDGYMSCKDGKASFTCTCKPGWQGEKCEFDINECKDPSNINGGCSQICDNTPGSYHCSCKNGFVMLSNKKDCKDVDECSLKPSICGTAVCKNIPGDFECECPEGYRYNLKSKSCEDIDECSENMCAQLCVNYPGGYTCYCDGKKGFKLAQDQKSCEVVSVCLPLNLDTKYELLYLAEQFAGVVLYLKFRLPEISRFSAEFDFRTYDSEGVILYAESIDHSAWLLIALRGGKIEVQLKNEHTSKITTGGDVINNGLWNMVSVEELEHSISIKIAKEAVMDINKPGPLFKPENGLLETKVYFAGFPRKVESELIKPINPRLDGCIRSWNLMKQGASGIKKIIQEKQNKHCLVTVEKGSYYPGSGIAQFHIDYNNVSSAEGWHVNVTLNIRPSTGTGVMLALVSGNNTVPFAVSLVDSTSEKSQDILLSVENTVIYRIQALSLCSDQQSHLEFRVNRNNLELSTPLKIETISHEDLQRQLAVLDKAMKAKVATYLGGLPDVPFSATPVNAFYNGCMEVNINGVQLDLDEAISKHNDIRAHSCPSVWKKTKNS
B1: in assay [1] (setting [4]), the “Clotting Time” value worked out at 97 s. The “binding to C4BP” value in assay [2] was “bound to C4BP with the same apparent affinity as the wild type recombinant molecule”.

B2: R49L/R60L variant: recombinant protein S double variant in thrombin-sensitive domain (protein, UniProt P07225 42-676, looked up, variant R49L R60L)
Vitamin K-dependent protein S: B1 chain with R49L, R60L, K424E
As for B2, the “Clotting Time” value in assay [1] (setting [5]) amounted to 88 s. Also, in the assay with thrombin (concentration 1.12 ug/ml), the “Clotting Time After Treatment” value is 80 s.

B3: R49L/R70I variant: recombinant protein S double variant in thrombin-sensitive domain (protein, UniProt P07225 42-676, looked up, variant R49L R70I)
Vitamin K-dependent protein S: B1 chain with R49L, R70I, K424E
As for B3, the “Clotting Time” value in assay [1] (setting [5]) was found to be 86 s. Moreover, in the assay with thrombin (concentration 1.12 ug/ml), the “Clotting Time After Treatment” value amounted to 80 s.

B4: R60L/R70I variant: recombinant protein S double variant in thrombin-sensitive domain (protein, UniProt P07225 42-676, looked up, variant R60L R70I)
Vitamin K-dependent protein S: B1 chain with R60L, R70I, K424E
B4: the “Clotting Time” value in assay [1] (setting [6]) amounted to 79 s. In addition, the “Clotting Time After Treatment” value in the assay with thrombin (concentration 0.60 ug/ml) was 72 s.

B5: R70I variant: recombinant protein S single variant in thrombin-sensitive domain, arginine 70 replaced by isoleucine (protein, UniProt P07225 42-676, looked up, variant R70I)
Vitamin K-dependent protein S: B1 chain with R70I, K424E
As to B5, the “Clotting Time” value in assay [1] (setting [6]) was found to be 79 s. The “Clotting Time After Treatment” value with thrombin (concentration 0.60 ug/ml) was 75 s.

B6: K432E variant: recombinant human protein S with Lys-432 replaced by Glu (protein)
chain: B1 chain with K424E, K432E
With B6, in assay [2], the “binding to C4BP” value is reported as “failed to bind to C4BP at concentrations up to 50 ng/ml”.

B7: R60L variant: recombinant protein S single variant in thrombin-sensitive domain, arginine 60 replaced by leucine (protein, UniProt P07225 42-676, looked up, variant R60L)
Vitamin K-dependent protein S: B1 chain with R60L, K424E
For B7, the “Clotting Time” value in assay [1] (setting [3]) was 90 s. Besides, the “Clotting Time After Treatment” value with thrombin (concentration 2.38 ug/ml) came out at 75 s.

B8: R49L variant: recombinant protein S single variant in thrombin-sensitive domain, arginine 49 replaced by leucine (protein, UniProt P07225 42-676, looked up, variant R49L)
Vitamin K-dependent protein S: B1 chain with R49L, K424E
Turning to B8, the “Clotting Time” value in assay [1] (setting [6]) was determined as 80 s. Moreover, the “Clotting Time After Treatment” value in the assay with thrombin (concentration 0.60 ug/ml) was determined as 72 s.

B9: I425A/I426A variant: recombinant human protein S with alanine in place of isoleucine at positions 425 and 426 (protein)
chain: B1 chain with K424E, I425A, I426A
As to B9, in assay [2], the “binding to C4BP” value is reported as “failed to bind to C4BP at concentrations up to 50 ng/ml”.

B10: Q427E variant: recombinant human protein S with Gln-427 replaced by Glu (protein)
chain: B1 chain with K424E, Q427E
Regarding B10, the “Clotting Time” value in assay [1] (setting [4]) stood at 94 s. Besides, the “binding to C4BP” value in assay [2] was “bound to C4BP with the same apparent affinity as the wild type recombinant molecule”.
